Assay results from IntAct's records for PubMed 24114786.

Legend:
bak1_arath BAK1 = bak1_arath BAK1 (UniProt Q94F62)
flica_pseai fliC = flica_pseai fliC (UniProt P21184)
Chain of flica_pseai fliC (P21184 whole entry): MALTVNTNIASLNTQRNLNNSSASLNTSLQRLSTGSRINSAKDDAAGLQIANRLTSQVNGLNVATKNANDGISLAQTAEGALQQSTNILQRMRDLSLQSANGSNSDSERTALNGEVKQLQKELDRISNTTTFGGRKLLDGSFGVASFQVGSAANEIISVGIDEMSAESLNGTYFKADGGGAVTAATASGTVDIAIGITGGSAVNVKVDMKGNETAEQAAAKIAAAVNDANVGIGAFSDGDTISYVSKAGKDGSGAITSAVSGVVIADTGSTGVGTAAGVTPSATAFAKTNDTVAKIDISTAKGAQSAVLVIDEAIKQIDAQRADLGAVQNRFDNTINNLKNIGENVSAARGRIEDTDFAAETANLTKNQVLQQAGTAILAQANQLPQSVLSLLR

Chain of bak1_arath BAK1 (Q94F62 whole entry): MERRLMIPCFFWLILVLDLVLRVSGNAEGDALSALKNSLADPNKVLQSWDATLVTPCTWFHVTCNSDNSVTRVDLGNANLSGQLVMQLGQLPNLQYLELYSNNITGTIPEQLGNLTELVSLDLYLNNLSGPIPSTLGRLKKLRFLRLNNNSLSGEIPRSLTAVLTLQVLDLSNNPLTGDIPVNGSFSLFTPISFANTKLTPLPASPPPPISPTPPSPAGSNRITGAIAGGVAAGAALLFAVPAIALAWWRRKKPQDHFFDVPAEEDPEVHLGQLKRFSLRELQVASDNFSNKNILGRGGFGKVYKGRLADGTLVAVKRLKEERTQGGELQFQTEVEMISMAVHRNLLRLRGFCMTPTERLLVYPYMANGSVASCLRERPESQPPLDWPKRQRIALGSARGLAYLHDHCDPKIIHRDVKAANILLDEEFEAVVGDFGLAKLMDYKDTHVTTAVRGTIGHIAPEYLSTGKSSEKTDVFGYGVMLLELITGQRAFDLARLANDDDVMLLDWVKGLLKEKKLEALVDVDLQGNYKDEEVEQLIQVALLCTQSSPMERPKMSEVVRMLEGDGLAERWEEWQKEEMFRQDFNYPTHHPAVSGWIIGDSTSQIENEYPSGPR
Chain of LRR receptor-like serine/threonine-protein kinase FLS2 (Arabidopsis thaliana (Mouse-ear cress)), Q9FL28 D414A (Q9FL28 whole entry D414A): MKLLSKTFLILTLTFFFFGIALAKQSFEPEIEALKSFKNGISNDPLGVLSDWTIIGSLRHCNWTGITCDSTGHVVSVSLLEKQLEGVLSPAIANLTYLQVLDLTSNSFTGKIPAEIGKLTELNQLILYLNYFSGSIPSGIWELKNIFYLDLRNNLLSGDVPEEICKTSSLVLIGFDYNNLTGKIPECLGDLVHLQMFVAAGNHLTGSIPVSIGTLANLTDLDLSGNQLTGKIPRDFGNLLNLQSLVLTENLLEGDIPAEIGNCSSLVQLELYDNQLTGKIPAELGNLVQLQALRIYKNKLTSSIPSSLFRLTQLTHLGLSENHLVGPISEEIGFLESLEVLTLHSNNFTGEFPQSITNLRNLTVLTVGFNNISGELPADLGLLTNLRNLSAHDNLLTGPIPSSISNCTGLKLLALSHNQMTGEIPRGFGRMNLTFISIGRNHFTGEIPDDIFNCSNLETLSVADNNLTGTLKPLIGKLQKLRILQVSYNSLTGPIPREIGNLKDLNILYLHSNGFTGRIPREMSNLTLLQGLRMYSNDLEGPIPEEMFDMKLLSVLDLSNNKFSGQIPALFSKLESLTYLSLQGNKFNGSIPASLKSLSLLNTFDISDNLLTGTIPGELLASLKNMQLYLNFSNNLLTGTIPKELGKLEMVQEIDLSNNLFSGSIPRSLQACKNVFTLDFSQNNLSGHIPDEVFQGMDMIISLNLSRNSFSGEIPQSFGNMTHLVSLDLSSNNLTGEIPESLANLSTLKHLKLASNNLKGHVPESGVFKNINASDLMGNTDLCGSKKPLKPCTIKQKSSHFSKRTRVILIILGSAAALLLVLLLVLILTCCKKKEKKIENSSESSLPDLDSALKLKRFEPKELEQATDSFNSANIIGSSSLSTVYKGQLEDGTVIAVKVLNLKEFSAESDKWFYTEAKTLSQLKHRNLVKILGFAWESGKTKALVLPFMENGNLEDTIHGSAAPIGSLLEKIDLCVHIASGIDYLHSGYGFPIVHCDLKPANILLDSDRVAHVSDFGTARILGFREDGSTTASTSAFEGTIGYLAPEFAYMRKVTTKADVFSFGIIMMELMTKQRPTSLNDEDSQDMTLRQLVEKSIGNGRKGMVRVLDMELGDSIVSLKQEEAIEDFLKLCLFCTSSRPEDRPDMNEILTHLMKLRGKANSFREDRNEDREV
Chain of LRR receptor-like serine/threonine-protein kinase FLS2 (Arabidopsis thaliana (Mouse-ear cress)), Q9FL28 R294A;H316A (Q9FL28 whole entry R294A/H316A): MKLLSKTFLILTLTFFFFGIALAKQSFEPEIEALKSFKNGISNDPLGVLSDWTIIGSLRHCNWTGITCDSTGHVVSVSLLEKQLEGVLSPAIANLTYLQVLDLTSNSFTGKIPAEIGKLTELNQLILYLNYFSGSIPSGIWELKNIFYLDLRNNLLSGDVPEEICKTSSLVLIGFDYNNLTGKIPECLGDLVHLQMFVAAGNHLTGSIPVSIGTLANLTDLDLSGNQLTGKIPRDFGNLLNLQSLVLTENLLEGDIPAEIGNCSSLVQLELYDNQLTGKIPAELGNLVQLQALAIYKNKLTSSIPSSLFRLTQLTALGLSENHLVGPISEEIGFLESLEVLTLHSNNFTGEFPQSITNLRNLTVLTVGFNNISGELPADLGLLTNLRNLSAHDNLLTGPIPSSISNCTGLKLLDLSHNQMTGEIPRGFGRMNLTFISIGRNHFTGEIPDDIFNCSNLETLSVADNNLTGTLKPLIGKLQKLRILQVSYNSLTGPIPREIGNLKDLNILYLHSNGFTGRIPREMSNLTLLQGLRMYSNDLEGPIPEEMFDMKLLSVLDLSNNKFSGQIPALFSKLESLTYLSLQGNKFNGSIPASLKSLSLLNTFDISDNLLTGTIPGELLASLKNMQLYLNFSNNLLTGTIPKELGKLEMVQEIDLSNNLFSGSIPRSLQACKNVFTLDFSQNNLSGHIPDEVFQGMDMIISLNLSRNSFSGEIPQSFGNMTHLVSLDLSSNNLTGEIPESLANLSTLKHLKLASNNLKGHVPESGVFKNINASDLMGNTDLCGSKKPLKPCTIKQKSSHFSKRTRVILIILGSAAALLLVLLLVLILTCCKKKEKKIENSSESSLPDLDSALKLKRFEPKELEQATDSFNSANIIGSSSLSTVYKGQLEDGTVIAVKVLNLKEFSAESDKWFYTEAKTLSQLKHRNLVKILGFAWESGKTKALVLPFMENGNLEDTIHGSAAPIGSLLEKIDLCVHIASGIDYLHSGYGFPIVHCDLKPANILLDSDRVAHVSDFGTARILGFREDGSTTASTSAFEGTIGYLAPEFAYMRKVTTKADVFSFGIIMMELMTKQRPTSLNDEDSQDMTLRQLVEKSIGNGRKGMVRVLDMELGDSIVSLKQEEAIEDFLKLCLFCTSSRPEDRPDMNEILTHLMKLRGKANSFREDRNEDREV
Chain of LRR receptor-like serine/threonine-protein kinase FLS2 (Arabidopsis thaliana (Mouse-ear cress)), Q9FL28 T342Y (Q9FL28 whole entry T342Y): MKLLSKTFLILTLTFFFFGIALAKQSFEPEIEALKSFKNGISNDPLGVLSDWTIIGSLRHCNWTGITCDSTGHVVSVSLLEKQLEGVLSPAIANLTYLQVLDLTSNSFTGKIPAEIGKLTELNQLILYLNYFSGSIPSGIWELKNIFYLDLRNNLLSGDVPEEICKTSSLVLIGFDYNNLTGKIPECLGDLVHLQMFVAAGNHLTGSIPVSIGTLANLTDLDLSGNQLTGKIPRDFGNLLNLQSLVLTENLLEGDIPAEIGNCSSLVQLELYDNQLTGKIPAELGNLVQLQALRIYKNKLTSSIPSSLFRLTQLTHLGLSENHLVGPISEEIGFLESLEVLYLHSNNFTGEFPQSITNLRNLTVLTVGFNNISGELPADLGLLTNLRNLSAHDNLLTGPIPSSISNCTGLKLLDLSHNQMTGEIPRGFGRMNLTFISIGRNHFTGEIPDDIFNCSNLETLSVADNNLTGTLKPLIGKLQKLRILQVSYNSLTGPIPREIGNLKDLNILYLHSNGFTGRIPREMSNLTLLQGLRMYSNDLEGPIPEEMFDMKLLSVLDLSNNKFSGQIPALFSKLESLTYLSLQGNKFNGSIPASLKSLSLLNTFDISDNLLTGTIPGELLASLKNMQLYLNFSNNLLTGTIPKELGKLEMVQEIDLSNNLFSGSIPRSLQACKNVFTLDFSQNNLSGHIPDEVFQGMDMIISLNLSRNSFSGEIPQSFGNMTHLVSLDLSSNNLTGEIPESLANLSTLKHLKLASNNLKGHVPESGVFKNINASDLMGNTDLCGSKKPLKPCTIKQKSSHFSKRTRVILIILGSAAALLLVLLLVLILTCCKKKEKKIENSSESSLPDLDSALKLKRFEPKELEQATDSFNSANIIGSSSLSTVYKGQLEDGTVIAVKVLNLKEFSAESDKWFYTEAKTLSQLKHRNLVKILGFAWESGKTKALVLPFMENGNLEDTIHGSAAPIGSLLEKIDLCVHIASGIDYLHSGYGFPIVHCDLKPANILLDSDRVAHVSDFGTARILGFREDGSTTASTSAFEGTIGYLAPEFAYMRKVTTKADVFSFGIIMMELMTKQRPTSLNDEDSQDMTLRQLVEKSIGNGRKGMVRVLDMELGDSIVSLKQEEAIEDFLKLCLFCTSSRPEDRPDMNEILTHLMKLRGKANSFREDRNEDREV

| Substance | effect of a mutation on the interaction (bak1_arath BAK1) | effect of a mutation on the interaction (flica_pseai fliC) |
| --- | --- | --- |
| LRR receptor-like serine/threonine-protein kinase FLS2 (Arabidopsis thaliana (Mouse-ear cress)), Q9FL28 D414A | decreasing interaction strength | decreasing interaction strength |
| LRR receptor-like serine/threonine-protein kinase FLS2 (Arabidopsis thaliana (Mouse-ear cress)), Q9FL28 R294A;H316A | disrupting interaction strength | disrupting interaction strength |
| LRR receptor-like serine/threonine-protein kinase FLS2 (Arabidopsis thaliana (Mouse-ear cress)), Q9FL28 S437Y | decreasing interaction strength | decreasing interaction strength |
| LRR receptor-like serine/threonine-protein kinase FLS2 (Arabidopsis thaliana (Mouse-ear cress)), Q9FL28 T342Y | disrupting interaction strength | disrupting interaction strength |
